Common to all, as to experiment: SPR
(In general: SPR reads the build-up and loss of mass on a sensor chip optically.)

The target of assay [1] is T1, FcgRIIIa F (human, UniProt P08637).
The target of assay [2] is T1, FcgRIIIa F. The source holds these as a separate data set.
The target of assay [3] is T2, FcgRIIIa V (human, UniProt P08637).
For assay [4], the target named is T3, FcgRIIa H (human, UniProt P12318).
T3 chain: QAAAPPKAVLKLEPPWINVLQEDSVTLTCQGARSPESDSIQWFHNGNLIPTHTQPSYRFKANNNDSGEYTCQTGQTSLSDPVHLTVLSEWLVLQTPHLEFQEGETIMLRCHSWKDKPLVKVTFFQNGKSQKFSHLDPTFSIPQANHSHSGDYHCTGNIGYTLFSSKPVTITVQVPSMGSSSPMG

Assay [5] has as its target T4, FcgRIIb (human, UniProt P31994).
T4 chain: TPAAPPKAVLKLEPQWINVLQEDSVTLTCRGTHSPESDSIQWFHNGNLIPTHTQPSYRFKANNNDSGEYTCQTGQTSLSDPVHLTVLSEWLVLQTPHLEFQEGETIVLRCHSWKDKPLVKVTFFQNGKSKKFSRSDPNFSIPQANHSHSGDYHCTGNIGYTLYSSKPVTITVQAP

Assay [6] addresses T5, FcgRIa (human, UniProt P12314).
T5 chain: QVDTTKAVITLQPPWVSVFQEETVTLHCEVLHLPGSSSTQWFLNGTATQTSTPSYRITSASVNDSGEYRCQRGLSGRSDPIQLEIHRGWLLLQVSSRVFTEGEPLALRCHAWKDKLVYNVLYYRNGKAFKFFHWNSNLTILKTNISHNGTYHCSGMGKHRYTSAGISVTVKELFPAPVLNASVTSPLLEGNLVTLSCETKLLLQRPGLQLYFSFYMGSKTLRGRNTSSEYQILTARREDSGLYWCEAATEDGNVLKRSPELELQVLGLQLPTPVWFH

Assay [7] has as its target T6, FcgRIIa R (human, UniProt P12318).
T6 chain: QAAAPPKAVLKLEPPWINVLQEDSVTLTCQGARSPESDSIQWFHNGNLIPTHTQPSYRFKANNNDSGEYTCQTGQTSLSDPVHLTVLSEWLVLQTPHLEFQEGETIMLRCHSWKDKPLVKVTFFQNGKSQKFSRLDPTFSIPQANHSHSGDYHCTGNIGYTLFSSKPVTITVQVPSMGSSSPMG

The target in assay [8] is T2, FcgRIIIa V. This is another data set of the same source.
Assay [9] deals with T1, FcgRIIIa F. The source holds these as a separate data set.
Assay [10] addresses T2, FcgRIIIa V. The source holds these as a separate data set.
Assay [11] concerns the target T4, FcgRIIb.
The target in assay [12] is T6, FcgRIIa R.
The target in assay [13] is T3, FcgRIIa H.
The target in assay [14] is T5, FcgRIa.

Where two headings read alike, the source gives them in different places.

T1 sequence (P08637 17-208): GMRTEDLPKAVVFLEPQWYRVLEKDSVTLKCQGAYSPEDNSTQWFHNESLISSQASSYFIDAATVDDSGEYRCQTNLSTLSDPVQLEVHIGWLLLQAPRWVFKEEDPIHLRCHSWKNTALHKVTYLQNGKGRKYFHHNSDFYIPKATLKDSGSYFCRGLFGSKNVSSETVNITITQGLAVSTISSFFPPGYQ
T2 sequence (P08637 17-208 F176V): as the sequence (P08637 17-208) above, with F160V counted along it

B1: GpH7-A53/GpH7-B78/GpL16-k0 (antibody)
chain 1: QVQLVQSGAEVKKPGASVTVSCKASGYTFTDYEMHWIRQPPGEGLEWIGAIDPKTGDTAYSESFQDRVTLTADKSTSTAYMELSSLTSEDTAVYYCTRFYSYTYWGQGTLVTVSSASTKGPSVFPLAPSSKSTSGGTAALGCLVKDYFPEPVTVSWNSGALTSGVHTFPAVLQSSGLYSLSSVVTVPSSSLGTQTYICNVNHKPSNTKVDKKVEPKSCDKTHTCPPCPAPELLGGPDVFLFPPKPKDTLMISRTPEVTCVVVDVSHEDPEVKFNWYVDGVEVHNAKTKPREEQYNSTYRVVSVLTVLHQDWLNGKEYKCKVSNKALPAPIEKTISKAKGQPREPQVYTLPPSRKELTKNQVSLTCLVKGFYPSDIAVEWESNGQPENNYKTTPPVLDSDGSFFLYSKLTVDKSRWQQGNVFSCSVMHEALHNRYTQKSLSLSP
chain 2: QVQLVQSGAEVKKPGASVTVSCKASGYTFTDYEMHWIRQPPGEGLEWIGAIDPKTGDTAYSESFQDRVTLTADKSTSTAYMELSSLTSEDTAVYYCTRFYSYTYWGQGTLVTVSSASTKGPSVFPLAPSSKSTSGGTAALGCLVKDYFPEPVTVSWNSGALTSGVHTFPAVLQSSGLYSLSSVVTVPSSSLGTQTYICNVNHKPSNTKVDKKVEPKSCDKTHTCPPCPAPELLGGPDVFLFPPKPKDTLMISRTPEVTCVVVDVSHEDPEVKFNWYVDGVEVHNAKTKPREEQYNSTYRVVSVLTVLHQDWLNGKEYKCKVSNKALPLPEEKTISKAKGQPREPQVYTLPPSRDELTKNQVSLTCLVKGFYPSDIAVEWESNGQPENNYKTTPPVLDSDGSFFLYSKLTVDKSRWQQGNVFSCSVMHEALHNHYTQESLSLSP
chain 3: DIVMTQSPLSLPVTPGEPASISCQASESLVHSNRNTYLHWYLQKPGQSPQLLIYKVSNRFSGVPDRFSGSGSGTDFTLKISRVEAEDVGVYYCSQNTHVPPTFGQGTKVEIERTVAAPSVFIFPPSDEQLKSGTASVVCLLNNFYPREAKVQWKVDNALQSGNSQESVTEQDSKDSTYSLSSTLTLSKADYEKHKVYACEVTHQGLSSPVTKSFNRGEC
Consider B1, for which binding in assay [1] was characterised by a dissociation constant (Kd) of 11 nM.

B2: GpH7-TA22/GpH7-TA58/GpL16-k0 (antibody)
chain 1: QVQLVQSGAEVKKPGASVTVSCKASGYTFTDYEMHWIRQPPGEGLEWIGAIDPKTGDTAYSESFQDRVTLTADKSTSTAYMELSSLTSEDTAVYYCTRFYSYTYWGQGTLVTVSSASTKGPSVFPLAPSSKSTSGGTAALGCLVKDYFPEPVTVSWNSGALTSGVHTFPAVLQSSGLYSLSSVVTVPSSSLGTQTYICNVNHKPSNTKVDKKVEPKSCDKTHTCPPCPAPEYLWGPDVFLFPPKPKDTLMISRTPEVTCVVVDVSHEDPEVKFNWYVDGVEVHNAKTKPREEQYNATYRVVSVLTVLHQDWLNGKEYKCKVSNKALPAPIEKTISKAKGQPREPQVYTLPPSRKELTKNQVSLTCLVKGFYPSDIAVEWESNGQPENNYKTTPPVLDSDGSFFLYSKLTVDKSRWQQGNVFSCSVMHEALHNRYTQKSLSLSP
chain 2: QVQLVQSGAEVKKPGASVTVSCKASGYTFTDYEMHWIRQPPGEGLEWIGAIDPKTGDTAYSESFQDRVTLTADKSTSTAYMELSSLTSEDTAVYYCTRFYSYTYWGQGTLVTVSSASTKGPSVFPLAPSSKSTSGGTAALGCLVKDYFPEPVTVSWNSGALTSGVHTFPAVLQSSGLYSLSSVVTVPSSSLGTQTYICNVNHKPSNTKVDKKVEPKSCDKTHTCPPCPAPELLGGPDVFLFPPKPKDTLMISRTPEVTCVVVDVSHEDPEVKFNWYVDGVEVHNAKTKPREEQWNSTYRVVSVLTVLHQDWLNGKEYKCKVSNKALPLPEEKTISKAKGQPREPQVYTLPPSRDELTKNQVSLTCLVKGFYPSDIAVEWESNGQPENNYKTTPPVLDSDGSFFLYSKLTVDKSRWQQGNVFSCSVMHEALHNHYTQESLSLSP
chain 3: DIVMTQSPLSLPVTPGEPASISCQASESLVHSNRNTYLHWYLQKPGQSPQLLIYKVSNRFSGVPDRFSGSGSGTDFTLKISRVEAEDVGVYYCSQNTHVPPTFGQGTKVEIERTVAAPSVFIFPPSDEQLKSGTASVVCLLNNFYPREAKVQWKVDNALQSGNSQESVTEQDSKDSTYSLSSTLTLSKADYEKHKVYACEVTHQGLSSPVTKSFNRGEC
Consider B2, for which binding in assay [2] was put at a Kd of 1.3 nM.

B3: IL6R-BP253/IL6R-L (antibody)
chain 1: QVQLQESGPGLVKPSETLSLTCAVSGHSISHDHAWSWVRQPPGEGLEWIGFISYSGITNYNPSLQGRVTISRDNSKNTLYLQMNSLRAEDTAVYYCARSLARTTAMDYWGEGTLVTVSSASTKGPSVFPLAPSSKSTSGGTAALGCLVKDYFPEPVTVSWNSGALTSGVHTFPAVLQSSGLYSLSSVVTVPSSSLGTQTYICNVNHKPSNTKVDKKVEPKSCDKTHTCPPCPAPELLGGPSVFLFPPKPKDTLMISRTPEVTCVVVDVEHEDPEVKFNWYVDGVEVHNAKTKPREEQYNSTYRVVSVLTVLHQDWLNGKEYKCKVSNKAFPAPIEKTISKAKGQPREPQVYTLPPSRDELTKNQVSLTCLVKGFYPSDIAVEWESNGQPENNYKTTPPVLDSDGSFFLYSKLTVDKSRWQQGNVFSCSVMHEALHNHYTQESLSLSP
chain 2: not shown
Take B3: the Kd (commonly the concentration at which binding is half-saturated) in assay [3] was 400 nM; in assay [4] it was 860 nM; in [5], 8.9 nM; in assay [6], 0.05 nM; in assay [7], 2.3 nM; in assay [8] it was 7100 nM.

B4: H240-Kn072/H240-Hl076/L73-k0 (antibody)
chain 1: QDQLVQSGAEVKKPGASVKVSCKASGFNIKDTYIQWVRQAPGQGLEWMGRIDPLRKQTKYREKFEGRVTITADTSTNTAYMELSSLRSEDTAVYYCVRSGREFDYWGQGTLVTVSSASTKGPSVFPLAPSSKSTSGGTAALGCLVKDYFPEPVTVSWNSGALTSGVHTFPAVLQSSGLYSLSSVVTVPSSSLGTQTYICNVNHKPSNTKVDKKVEPKSCDKTHTCPPCPAPEYYWGPSVFLFPPKPKDTLMISRTPEVTCVVVDVSDEEPEVKFNWYVDGVEVHNAKTKPREEQYNATYRVVSVLTVLHQDWLNGKEYKCKVSNKALPAPIEKTISKAKGQPREPQVCTLPPSRDELTKNQVSLWCLVKGFYPSDIAVEWESNGQPENNYKTTPPVLDSDGSFFLYSKLTVDKSRWQQGNVFSCSVMHEALHNHYTQKSLSLSP
chain 2: QDQLVQSGAEVKKPGASVKVSCKASGFNIKDTYIQWVRQAPGQGLEWMGRIDPLRKQTKYREKFEGRVTITADTSTNTAYMELSSLRSEDTAVYYCVRSGREFDYWGQGTLVTVSSASTKGPSVFPLAPSSKSTSGGTAALGCLVKDYFPEPVTVSWNSGALTSGVHTFPAVLQSSGLYSLSSVVTVPSSSLGTQTYICNVNHKPSNTKVDKKVEPKSCDKTHTCPPCPAPELLGGPSVFLFPPKPKDTLMISRTPEVTCVVVDVSHEEPEVKFNWYVDGVEVHNAKTKPREEQYNSTYRVVSVLTVLHQDWLNGKEYKCKVSNDALPMPIEETISKAKGQPREPQVYTLPPSRCELTKNQVSLSCAVKGFYPSDIAVEWESNGQPENNYKTTPPVLDSDGSFFLVSKLTVDKSRWQQGNVFSCSVMHEALHNHYTQKSLSLSP
chain 3: DIQMTQSPSSLSASVGDRVTITCRASQDIHKYIAWYQQKPGQAPRLLIQYTSTLQPGVPSRFSGSGSGTDYTFTISSLQPEDIATYYCLQYEQLRTFGGGTKVEIKRTVAAPSVFIFPPSDEQLKSGTASVVCLLNNFYPREAKVQWKVDNALQSGNSQESVTEQDSKDSTYSLSSTLTLSKADYEKHKVYACEVTHQGLSSPVTKSFNRGEC
Take B4: the Kd in assay [9] turned out to be 2.6 nM; in assay [10] it was 1 nM; in [11], 5700 nM; in [12], 710 nM; in assay [13] it was 130 nM; in assay [14], 0.1 nM.

Source of the values: patent publication US10766960 (dated 2020).
